Experimental data published in article PMC9007350, “Aurintricarboxylic acid is a canonical disruptor of the TAZ-TEAD transcriptional complex” (PLoS ONE, 2022).
One block for each binder: values may come before it. Ends that are not written are not given here.

What was measured:
Test in all cases: fluorescence polarisation; TEAD4 (217-434) at 350 nM, carboxyfluorescein peptide probe at 25 nM; disruptors titrated 0-150 uM to the probe-TEAD complex; 25 C, 20 min
Details in all cases: both partners purified
[1] = molecular target: YAP/TAZ-binding domain of human TEAD4 (217-434), acylation state not stated (human, UniProt Q15561 217-434)
YAP/TAZ-binding domain of human TEAD4 (217-434), acylation state not stated, sequence (Q15561 217-434): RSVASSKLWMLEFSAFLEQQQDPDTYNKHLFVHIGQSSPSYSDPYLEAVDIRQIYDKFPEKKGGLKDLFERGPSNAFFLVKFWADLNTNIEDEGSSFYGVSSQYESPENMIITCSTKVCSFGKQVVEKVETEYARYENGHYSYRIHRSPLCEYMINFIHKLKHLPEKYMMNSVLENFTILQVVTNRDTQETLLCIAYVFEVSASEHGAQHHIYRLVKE

[2] = molecular target: T1, YAP/TAZ-binding domain of human TEAD4 (217-434), acylated form (human, UniProt Q15561 217-434, acylated)
T1 construct: also called acylated TEAD
T1 sequence (Q15561 217-434): as above

[3] = molecular target: T2, YAP/TAZ-binding domain of human TEAD4 (217-434), deacylated form (human, UniProt Q15561 217-434)
T2 construct: also called deacylated TEAD
T2 sequence (Q15561 217-434): as above

binding result [1]: binds
B1: Mouse Vgll1 (26-51) peptide probe, carboxyfluorescein-labelled (peptide, UniProt Q99NC0 26-51, looked up)
peptide: GSVIFTYFEGDINSMVDEHFSRALRN
modifications: also: carboxyfluorescein label, position not given here
notes: mouse Vgll1 residues 26-51; also called Vgll1 peptide probe

binding result [2]: binds
binding result [3]: binds
B2: Human TAZ (23-57) peptide probe, carboxyfluorescein-labelled (peptide, UniProt Q9GZV5 23-57, looked up)
peptide: DLDTDLEALFNSVMNPKPSSWRKKILPESFFKEPD
modifications: carboxyfluorescein label (position not given)
notes: human TAZ residues 23-57, UniProt Q9GZV5; also called TAZ peptide probe; TAZ probe

binding result [1]: binds
B3: Human YAP (61-100) peptide probe, carboxyfluorescein-labelled (peptide, UniProt P46937 61-100, looked up)
peptide: SETDLEALFNAVMNPKTANVPQTVPMRLRKLPDSFFKPPE
modifications: carboxyfluorescein label (position not given)
notes: human YAP (Yes-associated protein) residues 61-100; also called YAP peptide probe
